Source: the supplement of paper PMC10567573

B1: EHMT1 (parent)
chain: EEINKNISDFGRQQLLPPFPSLHQ

Variants of: B1
Test: protein stability index of a GFP-peptide fusion (GPS, HEK-293T) (PSI 1-6); higher = more stable
Conditions: c terminus: a fixed tail appended
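Also: lentivirally expressed fusions sorted by FACS into six bins by GFP to DsRed ratio, PSI derived from sequencing read proportions per bin multiplied by bin number.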

In order of falling protein stability index:
1. F19D  4.42
2. F19P  4.41
3. F19E  4.39
4. F19Q  4.38
5. F19N  4.37
6. F19C  4.24
7. F19S  4.19
8. F19M  4.19
9. F19R  4.1
10. F19G  4.05
11. F19T  4.04
12. F19A  4.02
13. L16D  4
14. F19K  3.99
15. F10D  3.91
16. P17E  3.87
17. L16G  3.85
18. L16Q  3.83
19. L15D  3.81
20. F19V  3.76
21. L16S  3.73
22. P20E  3.73
23. I7N  3.72
24. L16E  3.72
25. L16N  3.71
26. F19H  3.69
27. P18E  3.66
28. L15E  3.65
29. R12D  3.64
30. P18Q  3.63
31. L15V  3.62
32. F19I  3.61
33. I7Q  3.58
34. L16A  3.57
35. P18R  3.57
36. F19L  3.54
37. R12T  3.52
38. L16T  3.5
39. P20D  3.5
40. R12N  3.5
41. R12E  3.46
42. P18D  3.46
43. F10K  3.45
44. F10S  3.4
45. Q13P  3.4
46. F10G  3.39
47. Q13E  3.38
48. I7E  3.38
49. R12P  3.38
50. F10E  3.37
51. L15G  3.37
52. K5D  3.37
53. P20G  3.37
54. P18K  3.36
55. L16P  3.34
56. P18V  3.34
57. L16V  3.33
58. L16H  3.32
59. P20N  3.32
60. F10P  3.31
61. I7F  3.31
62. P20Q  3.31
63. I3N  3.31
64. P18G  3.31
65. F10Q  3.3
66. I7G  3.3
67. L15Q  3.3
68. P20K  3.3
69. F19Y  3.29
70. L15R  3.28
71. K5N  3.28
72. P18A  3.28
73. P17Q  3.27
74. N4D  3.26
75. L16C  3.26
76. Q13D  3.25
77. G11Q  3.25
78. R12V  3.25
79. F10N  3.24
80. K5M  3.23
81. L16R  3.23
82. S8A  3.22
83. P20S  3.22
84. P17S  3.22
85. I7D  3.21
86. S8V  3.21
87. Q13A  3.2
88. R12A  3.2
89. K5T  3.16
90. P18C  3.16
91. L15T  3.15
92. K5E  3.15
93. R12G  3.15
94. N6D  3.15
95. N6S  3.15
96. P18H  3.15
97. I3S  3.13
98. S8P  3.12
99. R12S  3.12
100. P18S  3.12
101. F10Y  3.11
102. K5Q  3.11
103. I3T  3.11
104. P17K  3.09
105. L15K  3.07
106. S8D  3.07
107. P18L  3.07
108. G11E  3.06
109. K5P  3.06
110. R12K  3.06
111. P18W  3.06
112. K5A  3.05
113. L16K  3.05
114. P18N  3.05
115. F10M  3.04
116. F10V  3.04
117. F10A  3.04
118. I7M  3.03
119. S8K  3.02
120. I3K  3.02
121. I3G  3.01
122. Q13G  3
123. G11N  3
124. Q14E  3
125. F10H  2.99
126. I7V  2.98
127. I7L  2.97
128. L15Y  2.97
129. G11D  2.97
130. R12Q  2.97
131. I7A  2.96
132. L15H  2.96
133. I3L  2.95
134. P18M  2.95
135. Q13M  2.94
136. N4H  2.94
137. P17R  2.94
138. P18Y  2.94
139. R12I  2.93
140. L15P  2.92
141. Q14G  2.92
142. N6M  2.92
143. N6P  2.92
144. P18T  2.92
145. F10L  2.91
146. I3F  2.91
147. N6G  2.91
148. N6E  2.91
149. P18F  2.91
150. I3V  2.9
151. F10R  2.88
152. I7C  2.88
153. G11A  2.88
154. L15N  2.87
155. G11P  2.87
156. P20C  2.87
157. P18I  2.87
158. F10T  2.86
159. N4E  2.86
160. K5H  2.86
161. S8E  2.86
162. R12Y  2.86
163. L15I  2.85
164. G11M  2.85
165. N6A  2.85
166. K5S  2.84
167. Q14K  2.84
168. Q14D  2.84
169. P17C  2.84
170. I7S  2.83
171. P17G  2.83
172. L15S  2.82
173. S8I  2.82
174. L16I  2.82
175. P20A  2.82
176. L15A  2.81
177. I7K  2.79
178. L16M  2.79
179. R12C  2.79
180. P17A  2.79
181. S8H  2.77
182. S8T  2.77
183. Q14I  2.77
184. Q14V  2.77
185. R12H  2.77
186. Q13S  2.75
187. Q14A  2.74
188. I3M  2.74
189. R12L  2.74
190. P17D  2.74
191. I7H  2.73
192. I7Y  2.73
193. G11S  2.73
194. N4R  2.73
195. P20L  2.73
196. K5L  2.72
197. S8M  2.72
198. L15M  2.71
199. K5G  2.71
200. S8R  2.71
201. I3H  2.71
202. N6V  2.71
203. N6Q  2.71
204. Q13Y  2.7
205. N4Q  2.7
206. I3Y  2.7
207. N4P  2.69
208. N4L  2.69
209. P20H  2.69
210. P20I  2.69
211. I3Q  2.69
212. I3R  2.69
213. K5V  2.68
214. I3P  2.68
215. Q13N  2.65
216. L16W  2.65
217. D9G  2.65
218. N6T  2.65
219. S8F  2.64
220. S8Q  2.64
221. I7T  2.63
222. N4A  2.63
223. D9Q  2.63
224. S8C  2.62
225. Q14S  2.62
226. D9T  2.61
227. P20F  2.61
228. F10C  2.6
229. K5W  2.6
230. F10W  2.59
231. Q13K  2.59
232. G11K  2.59
233. D9L  2.58
234. K5R  2.57
235. Q13T  2.56
236. N4K  2.55
237. S8G  2.55
238. L15C  2.54
239. K5C  2.54
240. Q14N  2.54
241. P17Y  2.54
242. P17N  2.54
243. G11T  2.53
244. N4V  2.53
245. S8Y  2.53
246. F10I  2.52
247. I7W  2.52
248. N4M  2.52
249. P17H  2.52
250. K5I  2.51
251. P20M  2.51
252. Q13F  2.5
253. L15W  2.5
254. D9E  2.5
255. P20R  2.5
256. Q14M  2.49
257. Q13L  2.48
258. G11R  2.48
259. N4G  2.48
260. R12M  2.47
261. S8N  2.46
262. Q13V  2.45
263. N4S  2.45
264. N4C  2.45
265. L16Y  2.45
266. Q14R  2.45
267. Q14T  2.45
268. D9P  2.45
269. N6C  2.44
270. G11H  2.43
271. D9N  2.43
272. Q13R  2.42
273. I7R  2.42
274. L16F  2.42
275. D9S  2.42
276. D9H  2.41
277. P17T  2.41
278. D9Y  2.4
279. N6H  2.4
280. Q14P  2.39
281. I3W  2.39
282. I7P  2.38
283. D9A  2.38
284. N6K  2.38
285. N4T  2.33
286. Q13H  2.32
287. L15F  2.31
288. Q14L  2.31
289. D9V  2.31
290. Q14H  2.29
291. K5F  2.28
292. P17M  2.27
293. G11V  2.24
294. R12W  2.24
295. Q13W  2.23
296. R12F  2.23
297. D9R  2.22
298. D9I  2.21
299. P17L  2.21
300. Q13I  2.19
301. Q14C  2.18
302. D9K  2.18
303. P17V  2.18
304. N6I  2.17
305. G11Y  2.15
306. N4W  2.15
307. N4F  2.15
308. D9W  2.15
309. K5Y  2.13
310. S8L  2.12
311. D9F  2.1
312. N6R  2.1
313. D9C  2.09
314. N6Y  2.09
315. Q13C  2.06
316. Q14W  2.03
317. G11F  2.02
318. N4I  2.02
319. S8W  2.02
320. Q14F  2.02
321. D9M  2.02
322. P17W  2.02
323. P17F  2.02
324. N4Y  2.01
325. F19W  2.01
326. N6L  1.97
327. G11C  1.94
328. N6F  1.91
329. G11L  1.88
330. P17I  1.82
331. Q14Y  1.78
332. N6W  1.76
333. G11I  1.71
334. G11W  1.55
